{"source": "patent US20190060394A1", "about": "(HONG KONG BAPTIST UNIVERSITY, published 2019)", "molecules": {"B1": {"name": "L2P3 (peptide conjugate: L2 coupled to peptide P3, CAhxRrRKGGYFMVF) (peptide)", "peptide": "C[Ahx]R[dR]RKGGYFMVF-NH2", "modifications": "not fully specified (N-terminus); printed as CAhxRrRKGGYFMVF; also: L2 dye coupled to the peptide, site not given here", "notes": "Fluorescent dye-peptide conjugate"}, "B2": {"name": "L2P4 (peptide conjugate: L2, 4-(4-(diethylamino)styryl)-N-carboxymethylpyridinium, coupled through an amide bond to peptide P4, CAhxYFMVFGGRrRK) (peptide)", "peptide": "CXYFMVFGGRXRK", "modifications": "L2 (4-(4-(diethylamino)styryl)-N-carboxymethylpyridinium) coupled to the peptide through an amide bond; Ahx = 6-aminohexanoic acid (position 2); r = D-arginine (position 11); synthesised on Rink amide resin", "notes": "Fluorescent dye-peptide conjugate; also called formula (I)"}, "B3": {"name": "L2P2 (peptide conjugate: L2 coupled to peptide P2, YFMVF) (peptide)", "peptide": "YFMVF-NH2", "modifications": "not fully specified (N-terminus); also: L2 dye coupled to the peptide, site not given here", "notes": "as for B1"}}, "key": {"[1]": {"target": "bovine serum albumin (BSA) (bovine) (UniProt P02769)", "sequence (P02769 25-607 limits assumed)": "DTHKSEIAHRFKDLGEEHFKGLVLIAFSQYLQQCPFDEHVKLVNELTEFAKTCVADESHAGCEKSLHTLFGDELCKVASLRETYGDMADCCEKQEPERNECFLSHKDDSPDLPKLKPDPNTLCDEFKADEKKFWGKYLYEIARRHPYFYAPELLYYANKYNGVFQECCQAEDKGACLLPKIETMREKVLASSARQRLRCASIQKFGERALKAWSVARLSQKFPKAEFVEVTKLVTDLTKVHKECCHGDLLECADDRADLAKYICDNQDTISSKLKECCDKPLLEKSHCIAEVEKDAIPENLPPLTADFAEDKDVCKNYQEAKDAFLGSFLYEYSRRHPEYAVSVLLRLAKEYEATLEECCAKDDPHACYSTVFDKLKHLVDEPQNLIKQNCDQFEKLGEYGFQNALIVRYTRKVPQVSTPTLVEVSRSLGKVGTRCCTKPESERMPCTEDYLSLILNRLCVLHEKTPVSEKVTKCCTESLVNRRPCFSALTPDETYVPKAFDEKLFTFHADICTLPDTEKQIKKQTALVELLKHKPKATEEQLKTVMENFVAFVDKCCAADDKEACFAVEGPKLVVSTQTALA", "assay": "luminescence titration, selectivity assay"}, "[2]": {"target": "T1, Wild type EBNA1 protein (379-641 a.a.) fusing with glutathione S-transferase (Epstein-Barr virus, UniProt P03211 379-641)", "T1 construct": "Expressed in E. coli (BL21), purified on glutathione sepharose; also called WT-EBNA1; WT EBNA1; not shown: glutathione S-transferase (GST) fusion partner", "T1 sequence": "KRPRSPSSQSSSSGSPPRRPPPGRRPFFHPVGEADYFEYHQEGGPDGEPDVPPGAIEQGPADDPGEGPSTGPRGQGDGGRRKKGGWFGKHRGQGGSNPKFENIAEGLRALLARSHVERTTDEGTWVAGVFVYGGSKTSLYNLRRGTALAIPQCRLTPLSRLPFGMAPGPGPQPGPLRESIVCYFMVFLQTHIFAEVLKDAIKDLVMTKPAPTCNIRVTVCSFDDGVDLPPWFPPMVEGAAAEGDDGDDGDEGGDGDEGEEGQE", "assay": "luminescence titration in PBS, same conditions as L2P4"}, "[3]": {"target": "T1, Wild type EBNA1 protein (379-641 a.a.) …", "assay": "luminescence titration in PBS, double logarithm regression"}, "[4]": {"target": "T2, EBNA1 as present in the nucleus of EBV-positive cells (C666-1, NPC43, Raji) (Epstein-Barr virus, UniProt P03211 1-641)", "T2 sequence": "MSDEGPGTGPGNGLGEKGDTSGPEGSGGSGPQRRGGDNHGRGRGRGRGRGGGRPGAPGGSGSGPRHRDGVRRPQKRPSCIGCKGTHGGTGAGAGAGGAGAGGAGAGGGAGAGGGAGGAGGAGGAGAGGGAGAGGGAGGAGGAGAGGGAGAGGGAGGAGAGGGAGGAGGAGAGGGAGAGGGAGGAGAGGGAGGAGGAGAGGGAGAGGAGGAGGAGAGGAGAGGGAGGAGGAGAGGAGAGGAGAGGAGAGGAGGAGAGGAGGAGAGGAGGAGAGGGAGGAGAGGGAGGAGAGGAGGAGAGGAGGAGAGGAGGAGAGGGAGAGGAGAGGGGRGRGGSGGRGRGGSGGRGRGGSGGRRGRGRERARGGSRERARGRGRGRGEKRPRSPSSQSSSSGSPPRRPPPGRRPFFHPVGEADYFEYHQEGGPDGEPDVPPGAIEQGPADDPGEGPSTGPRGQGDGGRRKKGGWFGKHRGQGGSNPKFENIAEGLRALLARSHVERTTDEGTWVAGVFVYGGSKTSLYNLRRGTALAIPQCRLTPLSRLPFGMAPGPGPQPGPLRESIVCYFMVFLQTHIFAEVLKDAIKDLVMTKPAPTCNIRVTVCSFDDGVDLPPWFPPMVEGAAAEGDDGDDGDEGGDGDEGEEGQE", "assay": "cell-based or functional assay"}, "[5]": {"target": "T3, EBNA1-M563A (EBNA1 379-641 GST fusion with point mutation M563A) (Epstein-Barr virus, UniProt P03211 379-641)", "T3 construct": "Made by site-directed mutagenesis of the WT construct; not shown: glutathione S-transferase (GST) fusion partner", "T3 sequence": "T1 sequence with M185A", "assay": "luminescence titration, selectivity assay"}, "[6]": {"target": "T4, EBNA1-3A (EBNA1 379-641 GST fusion with YFMVF mutated to FFAVA) (Epstein-Barr virus, UniProt P03211 379-641)", "T4 construct": "also called EBNA1-3A mutant; mutant EBNA1; not shown: glutathione S-transferase (GST) fusion partner", "T4 sequence": "T1 sequence with Y183F, M185A, F187A", "assay": "luminescence titration, selectivity assay"}, "[7]": {"target": "T5, EBNA1-Y561A (EBNA1 379-641 GST fusion with point mutation Y561A) (Epstein-Barr virus, UniProt P03211 379-641)", "T5 construct": "Made by site-directed mutagenesis of the WT construct; not shown: glutathione S-transferase (GST) fusion partner", "T5 sequence": "T1 sequence with Y183A", "assay": "luminescence titration, selectivity assay"}, "[8]": {"target": "T6, EBNA1-F565A (EBNA1 379-641 GST fusion with point mutation F565A) (Epstein-Barr virus, UniProt P03211 379-641)", "T6 construct": "Made by site-directed mutagenesis of the WT construct; not shown: glutathione S-transferase (GST) fusion partner", "T6 sequence": "T1 sequence with F187A", "assay": "luminescence titration, selectivity assay"}, "[9]": {"target": "T1, Wild type EBNA1 protein (379-641 a.a.) …", "assay": "luminescence titration in PBS buffer"}}, "note": "Residue numbers refer to the chain shown, from its start. Where no end group is shown, it is not given here. [ ]: non-standard residue; d: D form. Ahx = NCCCCCC(=O)O", "data": [{"molecule": "L2P4 (peptide conjugate: L2, 4-(4-(diethylamino)styryl)-N-carboxymethylpyridinium, coupled through an amide bond to peptide P4, CAhxYFMVFGGRrRK)", "values": [{"measurement": "log Kassoc", "setting": "[1]", "value": 4.7, "unit": "log Kassoc"}]}, {"molecule": "B1", "values": [{"measurement": "increase in emission intensity (fold)", "setting": "[2]", "value": 4.7, "unit": "fold"}, {"measurement": "binding ratio", "setting": "[3]", "value": "1 probe : WT-EBNA1"}]}, {"molecule": "B2", "values": [{"measurement": "in vitro emission intensity in the nucleus of EBV-positive C666-1 cells (confocal microscopy), L2P4 against L2P3", "setting": "[4]", "value": 3, "unit": "fold over L2P3"}, {"measurement": "log Kassoc", "setting": "[5]", "value": 3.6, "unit": "log Kassoc"}, {"measurement": "log Kassoc", "setting": "[6]", "value": 3.9, "unit": "log Kassoc"}, {"measurement": "log Kassoc", "setting": "[7]", "value": 5.1, "unit": "log Kassoc"}, {"measurement": "log Kassoc", "setting": "[8]", "value": 4.3, "unit": "log Kassoc"}]}, {"molecule": "B3", "values": [{"measurement": "binding result", "setting": "[9]", "value": "no binding"}]}]}
